The record followed here is patent US20170334954A1.

For assay [1], the target named is human polyclonal IgG (Gammanorm) (human). Put plainly: column 10% breakthrough capacity, ligand content 9.7 mg/ml; 1.0 M NaOH; ratio to reference Zvar4.
The target is the same in assay [2]. Nature of the assay: column 10% breakthrough capacity, ligand content 9.7 mg/ml; 0.5 M NaOH; ratio to reference Zvar4.
Assay [3] has the same target. Put plainly: column 10% breakthrough capacity, ligand on agarose beads, ligand content 9.7 mg/ml, 6 min residence time; before NaOH.
Assay [4] shares this target. Put plainly: column 10% breakthrough capacity, ligand on agarose beads, ligand content 9.7 mg/ml; after 24 h in 0.5 M NaOH.
The target is the same in assay [5]. Put plainly: column 10% breakthrough capacity, ligand on agarose beads, ligand content 9.7 mg/ml, 6 min residence time; before NaOH. The source holds these as a separate data set.
Assay [6] shares this target. Put plainly: column 10% breakthrough capacity, ligand on agarose beads, ligand content 9.7 mg/ml; after six 4 h cycles in 1.0 M NaOH.
Assay [7] has the same target. Put plainly: column 10% breakthrough capacity, ligand content […]; 0.5 M NaOH; ratio to reference Zvar4.
For assay [8] the target is unchanged. Put plainly: column 10% breakthrough capacity, ligand on agarose beads, ligand content 7.0 mg/ml; after 24 h in 0.5 M NaOH.
For assay [9] the target is unchanged. Put plainly: column 10% breakthrough capacity, ligand on agarose beads, ligand content […], 6 min residence time; before NaOH.
Assay [10] has the same target. Put plainly: column 10% breakthrough capacity, ligand on agarose beads, ligand content […]; after 24 h in 0.5 M NaOH.
The target is the same in assay [11]. Nature of the assay: column 10% breakthrough capacity, ligand on agarose beads, ligand content 7.0 mg/ml, 6 min residence time; before NaOH.
The target is the same in assay [12]. Nature of the assay: column 10% breakthrough capacity, ligand content 7.0 mg/ml; 0.5 M NaOH; ratio to reference Zvar4.
The target is the same in assay [13]. Put plainly: column 10% breakthrough capacity, ligand on agarose beads, ligand content […]; after six 4 h cycles in 1.0 M NaOH.
Assay [14] has the same target. Nature of the assay: column 10% breakthrough capacity, ligand on agarose beads, ligand content 7.2 mg/ml; after 24 h in 0.5 M NaOH.
The target is the same in assay [15]. Put plainly: column 10% breakthrough capacity, ligand content […]; 1.0 M NaOH; ratio to reference Zvar4.
Assay [16] shares this target. Nature of the assay: column 10% breakthrough capacity, ligand content 7.2 mg/ml; 0.5 M NaOH; ratio to reference Zvar4.
Assay [17] has the same target. Nature of the assay: column 10% breakthrough capacity, ligand on agarose beads, ligand content 7.2 mg/ml, 6 min residence time; before NaOH.
The target is the same in assay [18]. Put plainly: column 10% breakthrough capacity, ligand on agarose beads, ligand content […], 6 min residence time; before NaOH. The source holds these as a separate data set.
Assay [19] has the same target. Put plainly: column 10% breakthrough capacity, ligand on agarose beads, ligand content 10.8 mg/ml; after 24 h in 0.5 M NaOH.
For assay [20] the target is unchanged. Put plainly: column 10% breakthrough capacity, ligand on agarose beads, ligand content 10.8 mg/ml, 6 min residence time; before NaOH.
The target is the same in assay [21]. Put plainly: column 10% breakthrough capacity, ligand content 10.8 mg/ml; 0.5 M NaOH; ratio to reference Zvar4.

As for “Zvar(N11K, H18K, S33K, D37E, A42R, N43A, L44I, K50R, L51Y)4 with an additional N-terminal cysteine (agarose bead ligand) (designed binder)”, the Capacity retention relative to ref. after six 4 h cycles in assay [1] came to 1.44; in assay [2], 1.53. Moreover, the Initial IgG capacity Qb10 in [3] came out at 56.3 mg/mL; in [5], 62.1 mg/mL. The Remaining IgG capacity Qb10 after six 4 h cycles in assay [4] was 52 mg/mL; in assay [6], 48.1 mg/mL. Also, the Remaining IgG capacity after six 4 h cycles (%) came to 92% in assay [4] and 77% in [6].

Regarding “Zvar(Q9A, N11E, N28A, N43A)4 with an additional N-terminal cysteine (agarose bead ligand) (designed binder)”, the results for the Capacity retention relative to ref. after six 4 h cycles in assay [7] and in assay [12] were 1.31 and 1.5, respectively. Also, the figures for the Remaining IgG capacity Qb10 after six 4 h cycles in assay [8] and in [10] were 44.1 mg/mL and 46.2 mg/mL, respectively. Besides, the figures for the Remaining IgG capacity after six 4 h cycles (%) in assay [8] and in [10] were 90% and 93%, respectively. Also, the figures for the Initial IgG capacity Qb10 in [9] and in [11] were 50 mg/mL and 49.1 mg/mL, respectively.

Take “Zvar(Q9A, N11E, Q40V, A42K, N43A, L44I)4 with an additional N-terminal cysteine (agarose bead ligand) (designed binder)”: the Remaining IgG capacity Qb10 after six 4 h cycles turned out to be 56 mg/mL in [13], 44.2 mg/mL in assay [14] and 53.6 mg/mL in [10]. The figures for the Remaining IgG capacity after six 4 h cycles (%) in assay [13], in assay [14] and in assay [10] were 93%, 90% and 95%, respectively. Further, the values for the Capacity retention relative to ref. after six 4 h cycles in [7], in [15] and in assay [16] were 1.34, 1.67 and 1.5, respectively. The Initial IgG capacity Qb10 in assay [9] was 56.3 mg/mL; in [17], 49 mg/mL; in [18], 60.3 mg/mL.

As to “Zvar(Q9A, N11K, H18K, D37E, A42R)4 with an additional N-terminal cysteine (agarose bead ligand) (designed binder)”, in assay [19], the Remaining IgG capacity Qb10 after six 4 h cycles is 52.5 mg/mL and the Remaining IgG capacity after six 4 h cycles (%) stood at 92%. The Initial IgG capacity Qb10 in assay [20] turned out to be 56.9 mg/mL. In addition, in assay [21], the Capacity retention relative to ref. after six 4 h cycles was determined as 1.3.
